# From patent publication US20250206809A1 (UNIVERSITY OF MASSACHUSETTS, published 2025)
# Tests used:
# [1] = target: T1, CFA/I (adhesin CfaE) on ETEC strain H10407 (enterotoxigenic Escherichia coli strain …, UniProt P25734 1-360); test: cell-based or functional assay
# T1 sequence (looked up): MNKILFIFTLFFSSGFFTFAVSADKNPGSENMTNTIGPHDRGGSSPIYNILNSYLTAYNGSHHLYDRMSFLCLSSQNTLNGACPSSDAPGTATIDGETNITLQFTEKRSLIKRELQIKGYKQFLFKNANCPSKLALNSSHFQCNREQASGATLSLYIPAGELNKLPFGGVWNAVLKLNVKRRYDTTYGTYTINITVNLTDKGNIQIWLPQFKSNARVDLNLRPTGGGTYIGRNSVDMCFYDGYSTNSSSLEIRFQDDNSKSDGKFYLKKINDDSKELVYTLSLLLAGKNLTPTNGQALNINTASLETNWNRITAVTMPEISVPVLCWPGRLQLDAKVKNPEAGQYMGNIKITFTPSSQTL
# [2] = target: CS4 on an ETEC strain (enterotoxigenic Escherichia coli); test: cell-based or functional assay
# [3] = target: CS14 on an ETEC strain (enterotoxigenic Escherichia coli); test: cell-based or functional assay
# [4] = target: CS1 on an ETEC strain (enterotoxigenic Escherichia coli); test: cell-based or functional assay
# [5] = target: CS17 on an ETEC strain (enterotoxigenic Escherichia coli); test: cell-based or functional assay
# [6] = target: CS19 on an ETEC strain (enterotoxigenic Escherichia coli); test: cell-based or functional assay
# [7] = target: CS2 on an ETEC strain (enterotoxigenic Escherichia coli); test: cell-based or functional assay
# [8] = target: CS3 on an ETEC strain (enterotoxigenic Escherichia coli); test: cell-based or functional assay
# [9] = target: CS5 on an ETEC strain (enterotoxigenic Escherichia coli); test: cell-based or functional assay
# [10] = target: CS6 on an ETEC strain (enterotoxigenic Escherichia coli); test: cell-based or functional assay
# [11] = target: CS21 on an ETEC strain (enterotoxigenic Escherichia coli); test: cell-based or functional assay
# [12] = target: T2, MBP-CfaE-N (recombinant N-terminal adhesin domain of CfaE fused to an MBP tag) (enterotoxigenic Escherichia coli, UniProt P0AEX9 27-392 = MBP, Biotinylated for SPR; FITC or Alexa Fluor labelled for yeast flow cytometry.); test: SPR, Biacore T200, CfaE on CM5 chip, VHH injected, 25 °C, 1:1 model
# T2 construct: It was used unlabelled in ELISA, 'biotinylated' on the chip in the SPR methods, and FITC/Alexa-labelled in yeast flow cytometry; also called recombinant N-terminal truncated CfaE protein; N-terminal truncation of CfaE; not shown: MBP tag and linker of vector pMAL-C5X, and the donor strand complement
# T2 sequence: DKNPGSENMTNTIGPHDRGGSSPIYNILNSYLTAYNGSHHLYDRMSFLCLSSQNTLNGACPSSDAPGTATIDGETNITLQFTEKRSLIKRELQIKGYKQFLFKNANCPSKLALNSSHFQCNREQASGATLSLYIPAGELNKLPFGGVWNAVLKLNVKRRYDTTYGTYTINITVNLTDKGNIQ
# [13] = target: T3, CS14; test: ELISA: plate coated with the recombinant antigen, purified VHH titrated (y axis printed as absorbance at 405, the text says OD450)
# T3 construct: not the CS14 on an ETEC strain; also called recombinant CS14; N-terminal adhesin domain of CsuD with MBP tag; not shown: MBP tag from vector pMAL-C5X, with any linker or donor-strand complement
# T3 chain: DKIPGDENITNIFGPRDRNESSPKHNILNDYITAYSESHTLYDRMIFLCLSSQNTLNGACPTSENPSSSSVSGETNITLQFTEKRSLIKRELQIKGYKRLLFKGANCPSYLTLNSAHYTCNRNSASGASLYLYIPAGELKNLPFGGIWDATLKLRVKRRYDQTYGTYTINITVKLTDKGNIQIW
# [14] = target: T4, CS19; test: as above
# T4 construct: not the CS19 on an ETEC strain; also called recombinant CS19; N-terminal adhesin domain of CsdD with MBP tag; not shown: MBP tag from vector pMAL-C5X, with any linker or donor-strand complement
# T4 chain: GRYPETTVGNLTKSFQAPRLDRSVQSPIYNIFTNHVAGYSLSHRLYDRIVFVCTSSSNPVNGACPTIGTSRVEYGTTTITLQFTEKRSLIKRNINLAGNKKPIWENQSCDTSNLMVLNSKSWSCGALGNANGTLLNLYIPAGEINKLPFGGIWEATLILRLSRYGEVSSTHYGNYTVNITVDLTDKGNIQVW
Binder,MRHA IC100 [1],MRHA IC100 [2],MRHA IC100 [3],MRHA IC100 [4],MRHA IC100 [5],MRHA IC100 [6],MRHA IC100 [7],MRHA IC100 [8],MRHA IC100 [9],MRHA IC100 [10],MRHA IC100 [11],Kd [12],koff [12],kon [12],binding result [13],binding result [14]
VHH antibody 1H4 (monomeric nanobody) (VHH) VHH: EVQLVESGGGLVQAGGSLRLSCAASSRTFNHYNIGWFRQAPGKEREFAAAITWNGRSTLYADSVKGRFTISRDNAKNTVYLQMNSLKPEDTAVYYCATLTTWEHKWEYNSQGQGTQVTVSS,200 µg/mL,25 µg/mL,100 µg/mL,100 µg/mL,6.25 µg/mL,100 µg/mL,100 µg/mL,100 µg/mL,3.12 µg/mL,25 µg/mL,25 µg/mL,–,–,–,–,–
VHH antibody 1D7 (monomeric nanobody) (VHH) VHH: EVQLVESGGGLVQAGGSLTLSCAASERTFSYYVMAWFRQAPGKEREFVAGISMSGDSTKYADSVKGRFTISRDNAENTGYLQMNGLKPEDTAVYYCAADRDIRGNFRSWGRGTQVTVSS,100 µg/mL,200 µg/mL,100 µg/mL,50 µg/mL,6.25 µg/mL,100 µg/mL,50 µg/mL,50 µg/mL,3.12 µg/mL,12.5 µg/mL,25 µg/mL,17.7 nM,0.0311 s⁻¹,1.75e+06 M⁻¹ s⁻¹,–,–
"VHH antibody 2R23 (monomeric nanobody) (VHH, Yeast-library clone, expressed in the E. coli periplasm) VHH: QVQLQESGGGLVQAGGSLRLSCAASGYIFWSYGYMGWYRQAPGKERELVATISRGGTTNYADSVKGRFTISRDNAKNTVYLQMNSLKPEDTAVYYCAAGRYAFGYFKYWGQGTQVTVSS",50 µg/mL,25 µg/mL,25 µg/mL,200 µg/mL,6.25 µg/mL,200 µg/mL,200 µg/mL,100 µg/mL,12.5 µg/mL,12.5 µg/mL,25 µg/mL,9.06 nM,64.6 s⁻¹,7.13e+09 M⁻¹ s⁻¹,binds,–
"VHH antibody 2R215 (monomeric nanobody) (VHH, Yeast-library clone, expressed in the E. coli periplasm and purified by Ni-NTA; also called monomeric 2R215; monomeric VHH 2R215) VHH: QVQLQESGGGLVQAGGSLRLSCAASGNIFQDAEMGWYRQAPGKEREFVATIAYGGNTNYADSVKGRFTISRDNAKNTVYLQMNSLKPEDTAVYYCAVYTGVYYDRTTGGYVAFEYWGQGTQVTVSS",25 µg/mL,100 µg/mL,200 µg/mL,200 µg/mL,6.25 µg/mL,200 µg/mL,6.25 µg/mL,100 µg/mL,6.25 µg/mL,25 µg/mL,25 µg/mL,–,–,–,–,binds
